Our source for the tissue to tissue ratio and tissue uptake values is patent US20260248972A1, “DUAL RECEPTOR TARGETING RADIOLIGANDS AND USES THEREOF RELATED APPLICATIONS” (priority 2022, published 2026).

Each structure is given as a SMILES string. *1 amine or outer side, *2 acyl side, *3 side chain or, on linkers, in order; H or OH if unused. Where a SMILES comes first, the peptide text is derived from it. Bridges are numbered along the chain shown (N, C = ends). Side-chain parts run from the residue outwards. [ ]: non-standard residue; d: D form. The star is where a group is joined. X1 = CC(C)(C)C(=O)CN1C(=O)[C@H](N*)CN(C2CCCCC2)c2ccccc21; DOTA = O=C(O)CN1CCN(CC(=O)O)CCN(CC(=O)*)CCN(CC(=O)O)CC1; 3Abz = Nc1cccc(C(=O)O)c1; CO = O=C([*:1])[*:2]

This data set in a line: in vivo. The conditions noted are these: BALB/c nude, mouse, in vivo, iv, total radioactivity. Here is the method: To a 0.5 M NaOAc buffer (20-50 μL, pH=4.5) was added 4 μL of exemplary or comparator compound in DMSO stock solution (2000 μM) and 2 mCi ^177Lu (ITM Isotope Technologies Munich), the resulting mixture was heated to 95° C. for 15 min. The resulting product was analyzed by radio-TLC and radio-HPLC (column: Shim-pack GIST 5 μm 4.6*150 mm; buffer A: 0.2% formic acid H2O; buffer B: 0.1% formic acid acetonitrile; flow rate: 1 mL/min; gradient: 0-5 min: 10% B to 95% B; then 5-8 min: 95% B). The labelled products were used immediately or diluted by a PBS buffer containing freshly added 3 mg/mL ascorbate.
All animal care and experimental procedure were performed by following the animal protocols approved by the ethics committee of China Institute of Radiation Protection. The BALB/c nude mice (Charles River, Beijing) were utilized for these studies. Mice were below 5 per cage in sterile, microisolator cages under temperature- and humidity-controlled conditions with a 12 h light/12 h dark schedule and fed irradiated rodent chow and reverse osmosis (RO) sterile water ad libitum. In preparation for tumor cell inoculations, mice were anesthetized with isoflurane (RWD Life Science Inc.) at an induction rate of 4% and maintained at a rate of 2.5% with 0.4 L oxygen delivered via precision vaporizer and a non-rebreathing apparatus. These mice received subcutaneous rear flank injections of approximately 4×10^6 AR42J cells ([…] pancreatic cancer cell line) suspended in 200 μL of phosphate-buffered saline (PBS) and Matrigel (Corning) (1/1). Xenografted tumors were allowed to grow for ~2-4 weeks post-inoculation and ranged in mass from 0.05 to 0.50 g (average tumor size, 0.20 g). […] The mice were euthanized, and the tissues and organs were excised from the animals at 4, 24 and 72 h post-injection. The tissues and organs were weighed, counted in a PerkinElmer 2480 WIZARD2 γ counter, and the percent injected dose (% ID) and % ID/g of each organ or tissue were calculated.

The term tissue uptake denotes the share of the injected amount in each gram of the tissue. In the case of `C[C@@H](O)[C@H](NC(=O)[C@@H]1CSSC[C@H](NC(=O)[C@@H](Cc2ccccc2)NC(=O)COCCOCCNC(=O)[C@H](CCCCNC(=O)c2cccc(NC(=O)N[C@@H]3CN(C4CCCCC4)c4ccccc4N(CC(=O)C(C)(C)C)C3=O)c2)NC(=O)COCCOCCNC(=O)CN2CCN(CC(=O)O)CCN(CC(=O)O)CCN(CC(=O)O)CC2)C(=O)N[C@@H](Cc2ccc(O)cc2)C(=O)N[C@H](Cc2c[nH]c3ccccc23)C(=O)N[C@@H](CCCCN)C(=O)N[C@@H]([C@@H](C)O)C(=O)N1)C(=O)O` [Compound I-52, DOTA-OEG-K(Z360)-OEG-f[CYwKTC]T-OH], the tissue to tissue ratio at 24 h was 0.9 (T/K Tumor/Kidney ratio); 2.2 (T/L Tumor/Liver ratio); 14 (T/P Tumor/Pancreas ratio); 36 (T/Sp Tumor/Spleen ratio); 2.4 (T/St Tumor/Stomach ratio). Besides, the tissue uptake at 24 h by setting is: (uptake Kidney) 14 %ID/g; (uptake Liver) 5.7 %ID/g; (uptake Pancreas) 0.9 %ID/g; (uptake Spleen) 0.3 %ID/g; (uptake Stomach) 5.1 %ID/g; (uptake Tumor) 12.4 %ID/g.

As for `C[C@@H](O)[C@H](NC(=O)[C@@H]1CSSC[C@H](NC(=O)[C@@H](Cc2ccccc2)NC(=O)CNC(=O)COCCOCCNC(=O)[C@H](CCCCNC(=O)c2cccc(NC(=O)N[C@@H]3CN(C4CCCCC4)c4ccccc4N(CC(=O)C(C)(C)C)C3=O)c2)NC(=O)CN2CCN(CC(=O)O)CCN(CC(=O)O)CCN(CC(=O)O)CC2)C(=O)N[C@@H](Cc2ccc(O)cc2)C(=O)N[C@H](Cc2c[nH]c3ccccc23)C(=O)N[C@@H](CCCCN)C(=O)N[C@@H]([C@@H](C)O)C(=O)N1)C(=O)O` [Compound I-53, DOTA-K(Z360)-OEG-G-f[CYwKTC]T-OH], the tissue to tissue ratio at 24 h is, setting by setting: (T/K Tumor/Kidney ratio) 2.3; (T/L Tumor/Liver ratio) 6.3; (T/P Tumor/Pancreas ratio) 18; (T/Sp Tumor/Spleen ratio) 52; (T/St Tumor/Stomach ratio) 4.8. Also, the tissue uptake at 24 h stood at 7.15 %ID/g (uptake Kidney); 2.57 %ID/g (uptake Liver); 0.91 %ID/g (uptake Pancreas); 0.31 %ID/g (uptake Spleen); 3.36 %ID/g (uptake Stomach); 16.2 %ID/g (uptake Tumor).

Regarding `C[C@@H](O)[C@H](NC(=O)[C@@H]1CSSC[C@H](NC(=O)[C@@H](Cc2ccccc2)NC(=O)CNC(=O)[C@H](CO)NC(=O)CNC(=O)[C@H](CCCCNC(=O)c2cccc(NC(=O)N[C@@H]3CN(C4CCCCC4)c4ccccc4N(CC(=O)C(C)(C)C)C3=O)c2)NC(=O)CN2CCN(CC(=O)O)CCN(CC(=O)O)CCN(CC(=O)O)CC2)C(=O)N[C@@H](Cc2ccc(O)cc2)C(=O)N[C@H](Cc2c[nH]c3ccccc23)C(=O)N[C@@H](CCCCN)C(=O)N[C@@H]([C@@H](C)O)C(=O)N1)C(=O)O` [Compound I-54, DOTA-K(Z360)-G-S-G-f[CYwKTC]T-OH] ({DOTA}-K([3Abz-CO-X1])GSG[dF]CY[dW]KTCT-OH; disulfide 6-11), the tissue to tissue ratio at 24 h runs as follows: (T/K Tumor/Kidney ratio) 2.4; (T/L Tumor/Liver ratio) 2.7; (T/P Tumor/Pancreas ratio) 9.7; (T/Sp Tumor/Spleen ratio) 36; (T/St Tumor/Stomach ratio) 6.3. Besides, the tissue uptake at 24 h is, setting by setting: (uptake Kidney) 10.5 %ID/g; (uptake Liver) 9.6 %ID/g; (uptake Pancreas) 2.65 %ID/g; (uptake Spleen) 0.71 %ID/g; (uptake Stomach) 4.1 %ID/g; (uptake Tumor) 25.8 %ID/g.

Regarding `C[C@@H](O)[C@H](NC(=O)[C@@H]1CSSC[C@H](NC(=O)[C@@H](Cc2ccccc2)NC(=O)CNC(=O)[C@H]2CCCN2C(=O)CNC(=O)[C@H]2CCCN2C(=O)CNC(=O)[C@H](CCCCNC(=O)c2cccc(NC(=O)N[C@@H]3CN(C4CCCCC4)c4ccccc4N(CC(=O)C(C)(C)C)C3=O)c2)NC(=O)CN2CCN(CC(=O)O)CCN(CC(=O)O)CCN(CC(=O)O)CC2)C(=O)N[C@@H](Cc2ccc(O)cc2)C(=O)N[C@H](Cc2c[nH]c3ccccc23)C(=O)N[C@@H](CCCCN)C(=O)N[C@@H]([C@@H](C)O)C(=O)N1)C(=O)O` [Compound I-55, DOTA-K(Z360)-G-p-G-p-G-f[CYwKTC]T-OH] ({DOTA}-K([3Abz-CO-X1])G[dP]G[dP]G[dF]CY[dW]KTCT-OH; disulfide 8-13), the tissue to tissue ratio at 24 h amounted to 1.1 (T/K Tumor/Kidney ratio); 2.5 (T/L Tumor/Liver ratio); 14 (T/P Tumor/Pancreas ratio); 34 (T/Sp Tumor/Spleen ratio); 7.3 (T/St Tumor/Stomach ratio). For the same molecule, the tissue uptake at 24 h is 20.8 %ID/g (uptake Kidney); 9.21 %ID/g (uptake Liver); 1.66 %ID/g (uptake Pancreas); 0.67 %ID/g (uptake Spleen); 3.13 %ID/g (uptake Stomach); 23 %ID/g (uptake Tumor).

Consider `C[C@@H](O)[C@H](NC(=O)[C@@H]1CSSC[C@H](NC(=O)[C@@H](Cc2ccccc2)NC(=O)CCCCCCCNC(=O)[C@H](CCCCNC(=O)c2cccc(NC(=O)N[C@@H]3CN(C4CCCCC4)c4ccccc4N(CC(=O)C(C)(C)C)C3=O)c2)NC(=O)CN2CCN(CC(=O)O)CCN(CC(=O)O)CCN(CC(=O)O)CC2)C(=O)N[C@@H](Cc2ccc(O)cc2)C(=O)N[C@H](Cc2c[nH]c3ccccc23)C(=O)N[C@@H](CCCCN)C(=O)N[C@@H]([C@@H](C)O)C(=O)N1)C(=O)O` [Compound I-61, DOTA-K(Z360)-Aoc-f[CYwKTC]T-OH], for which the tissue to tissue ratio at 24 h is 3.5 (T/K Tumor/Kidney ratio); 0.1 (T/L Tumor/Liver ratio); 16 (T/P Tumor/Pancreas ratio); 0.2 (T/Sp Tumor/Spleen ratio); 4.5 (T/St Tumor/Stomach ratio). In addition, the tissue uptake at 24 h by setting is: (uptake Kidney) 1.53 %ID/g; (uptake Liver) 53.3 %ID/g; (uptake Pancreas) 0.34 %ID/g; (uptake Spleen) 28.3 %ID/g; (uptake Stomach) 1.21 %ID/g; (uptake Tumor) 5.41 %ID/g.

In the case of `C[C@@H](O)[C@H](NC(=O)[C@@H]1CSSC[C@H](NC(=O)[C@@H](Cc2ccccc2)NC(=O)[C@H](CCCCNC(=O)c2cccc(NC(=O)N[C@@H]3CN(C4CCCCC4)c4ccccc4N(CC(=O)C(C)(C)C)C3=O)c2)NC(=O)[C@H](CCCNC(=N)N)NC(=O)CN2CCN(CC(=O)O)CCN(CC(=O)O)CCN(CC(=O)O)CC2)C(=O)N[C@@H](Cc2ccc(O)cc2)C(=O)N[C@H](Cc2c[nH]c3ccccc23)C(=O)N[C@@H](CCCCN)C(=O)N[C@@H]([C@@H](C)O)C(=O)N1)C(=O)O` [Compound I-62, DOTA-R-K(Z360)-f[CYwKTC]T-OH] ({DOTA}-RK([3Abz-CO-X1])[dF]CY[dW]KTCT-OH; disulfide 4-9), the tissue to tissue ratio at 24 h runs as follows: (T/K Tumor/Kidney ratio) 0.7; (T/L Tumor/Liver ratio) 0.3; (T/P Tumor/Pancreas ratio) 6.1; (T/Sp Tumor/Spleen ratio) 13; (T/St Tumor/Stomach ratio) 6.4. The tissue uptake at 24 h was determined as 14.7 %ID/g (uptake Kidney); 32.4 %ID/g (uptake Liver); 1.78 %ID/g (uptake Pancreas); 0.82 %ID/g (uptake Spleen); 1.68 %ID/g (uptake Stomach); 10.8 %ID/g (uptake Tumor).
